Earlier results in paper PMC6524963.
Read-outs that look alike come from different tables or passages of the source.

Tests used:
[1] = target: Ran (Homo sapiens) (UniProt P62826)
[2] = target: Ran (Homo sapiens) (UniProt P62826); remark: listed apart in the source

Kd [1]: 0.001 µM
Kd [2]: 10 µM
Substance: RanBP1/RanBP2 RBD RBD (from UniProt P43487)
